Patent US20170267771A1 (BIONOVION HOLDING B V, published 2017)
Blank lines part the entries; values can stand above or below the molecule they belong to.

Legend:
[1] = biological target: recombinant soluble hCD27-Fc fusion protein (rhCD27/Fc chimera, R&D systems cat. no. 382-CD) (human) (UniProt P26842); assay: competition cell ELISA (CHO-K1.CD70 competition assay): antibody dilutions mixed with rhCD27-Fc chimera, mix put on CHO-K1.CD70 cells, bound CD27-Fc detected with anti-human Ig-HRP; blocked ligand: hCD70 on the cells
[2] = biological target: human CD27, full length, expressed on cells (CHO-K1.CD27, MCF-7, HEK293T, human T cells) (human) (UniProt P26842); assay: cell ELISA on CHO-K1.hCD27 cells
[3] = biological target: human CD27, full length, expressed on cells (CHO-K1.CD27, MCF-7, HEK293T, human T cells) (human) (UniProt P26842); assay: competition cell ELISA on CHO-K1.CD27 cells; competitor recombinant CD70 fusion protein (0.5 ug/ml)
[4] = biological target: recombinant soluble hCD27-Fc fusion protein (rhCD27/Fc chimera, R&D systems cat. no. 382-CD) (human) (UniProt P26842); assay: competition cell ELISA: rhCD27-Fc (0.5 ug/ml) preincubated with antibody, binding to CHO-K1.CD70 cells
[5] = biological target: T1, human CD27, full length, expressed on cells (CHO-K1.CD27, MCF-7, HEK293T, human T cells) (human, UniProt P26842 20-260); assay: cell ELISA on CHO-K1.hCD27 cells
T1 construct: whole, on cells; Full length cDNA of hCD27 in pCI-neo (CHO-K1), a retroviral vector (MCF-7) or pcDNA3 (HEK293T); Also stands for native CD27 on human T cells in the functional rows; also called hCD27; CHO-K1.hCD27
T1 sequence (looked up): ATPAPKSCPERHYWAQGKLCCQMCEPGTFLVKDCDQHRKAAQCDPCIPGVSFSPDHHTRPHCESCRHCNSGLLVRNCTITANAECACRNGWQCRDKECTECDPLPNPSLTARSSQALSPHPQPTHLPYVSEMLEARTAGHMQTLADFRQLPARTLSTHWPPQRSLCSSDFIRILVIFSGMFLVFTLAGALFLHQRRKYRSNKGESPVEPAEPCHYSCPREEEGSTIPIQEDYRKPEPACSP
Method: Cell-based ELISA experiments using purified hCD27 antibodies were performed to determine binding activities of hCD27 to cellularly expressed hCD27. In this cell-ELISA, all incubation steps were followed by a wash step with PEST (PBS with 0.01% Tween 20). CHO-K1.hCD27 cells were seeded (40,000 cells/well) in tissue culture plates and incubated overnight at 37° C. The next day, culture medium was removed and cells were incubated for one hour with (dilutions of) purified antibodies at 37° C. Next, cells were washed with PBST and incubated for one hour at 37° C. with 1:1,000 goat-anti-mouse IgG-HRP (Southern Biotechnology, # 1030-05). Subsequently, cells were washed 6 times with PBST and anti-hCD27 immunoreactivity was visualized with 100 μl TMB Stabilized Chromagen (Invitrogen, cat. no. SB02). Reactions were stopped with 100 μl 0.5 M […] and absorbances were read at […] and 620 nm. […] Calculated EC₅₀, representing the concentration at which 50% of the total binding signal is observed are represented in Table 1.

[6] = biological target: T2, mouse CD27, full length, expressed on retrovirally transduced MCF-7 cells (mouse, UniProt P41272 24-250); assay: flow cytometry on MCF-7 cells transduced with mouse CD27
T2 construct: whole, on cells
T2 sequence (looked up): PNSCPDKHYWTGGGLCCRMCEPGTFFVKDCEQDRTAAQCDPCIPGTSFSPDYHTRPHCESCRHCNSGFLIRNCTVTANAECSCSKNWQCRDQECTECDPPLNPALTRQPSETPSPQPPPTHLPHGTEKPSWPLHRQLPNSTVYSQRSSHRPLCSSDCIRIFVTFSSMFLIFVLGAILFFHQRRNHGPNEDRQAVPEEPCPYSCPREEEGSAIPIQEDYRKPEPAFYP
Method: Binding of hCD27 antibodies to mouse CD27 was determined using MCF-7 breast carcinoma cells that had been retrovirally transduced to stably express the full length cDNA encoding human CD27 or mouse CD27. Empty vector-transduced cells served as a control. Binding of the antibodies was tested by flow cytometric analysis, with validated agonistic anti-hCD27 antibodies 1A4 and CLB CD27/1; and anti-mouse CD27 LG.3A10 (Gravestein et al., 1995, Int Immunol. 7:551-7) as positive controls. These commercially available anti-hCD27 antibodies, which have been reported to harbor agonistic activities, were obtained as described in Table 2.

[7] = biological target: T3, recombinant soluble hCD27-Fc fusion protein (rhCD27/Fc chimera, R&D systems cat. no. 382-CD) (human, UniProt P26842 21-192); assay: SPR (Biacore 2000), antibody amine-coupled to chip, rhCD27Fc chimera as analyte, 1:1 Langmuir fit
T3 construct: Bought reagent; Fc part of the bought chimera not given
T3 sequence (looked up): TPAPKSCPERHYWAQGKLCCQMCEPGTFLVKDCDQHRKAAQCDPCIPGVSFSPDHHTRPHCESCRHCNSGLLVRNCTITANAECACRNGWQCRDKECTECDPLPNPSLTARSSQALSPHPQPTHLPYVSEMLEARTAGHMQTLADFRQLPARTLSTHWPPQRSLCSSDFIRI
Method: The binding properties of hCD27.15 antibodies were characterized in more detail using label-free surface plasma resonance using Biacore 2000 equipment. Low amounts of antibodies were coupled to a CMS sensor chip using amine coupling at pH=4.5, with Rₘₐₓ not exceeding 100 RU. This will, in combination with a high flow level (30 μl/min) yield good fits to the 1:1 Langmuir binding model. A concentration series of rhCD27Fc chimera, ranging from 0.016 nM to 1 nM, was injected for 1 minute at 30 μl/min. The dissociation was monitored for 5 minutes. The running buffer is HEPES-buffered saline with 3 mM EDTA and 0.005% P20 (HBS-EP), pH 7.4. Combination plots were made by subtraction of the signal obtained at the blank flow cell, using BIAeval 3.2. The sensor grams were fitted to a 1:1 Langmuir binding model.

[8] = biological target: T1, human CD27, full length, expressed on …; assay: competition cell ELISA on CHO-K1.CD27 cells; competitor recombinant CD70 fusion protein (0.5 ug/ml)
Method: The CHO-K1.CD27 assay works along the following principles: CHO-K1.CD27 cells were seeded (40,000 cells/well) in a 96-well plate and incubated overnight at 37° C. After medium removal, 50 μl recombinant mouse CD70 fusion Protein (Fc-mCD70) (0.5 μg/ml) and 50 μl of different dilutions of purified anti-hCD27 antibodies were added. […] A cDNA construct encoding this fusion protein was constructed as described by Rowley and Al-Shamkhani, 2004, J Immunol 15:172:6039-46 and used to produce Fc-mCD70 protein in 293T human embryonic kidney cells. The protein was purified by affinity chromatography on Protein A Sepharose (GE Health Care).

[9] = biological target: T3, recombinant soluble hCD27-Fc fusion …; assay: competition cell ELISA: rhCD27-Fc (0.5 ug/ml) preincubated with antibody, binding to CHO-K1.CD70 cells
Method: Blocking properties of the purified antibodies were studied using two competition assays. The CHO-K1.CD70 assay works along the following principles: CHO-K1.CD70 cells were seeded in a 96 well plate at a density of 40,000 cells/well. The same amount of plates was blocked by adding 300 μl medium/well, and all plates were incubated overnight at 37° C. The following day, the medium-only containing plates were emptied by flicking the plate, and 50 μl/well rhCD27-Fc chimera (0.5 μg/ml) (R&D systems cat. no. 382-CD) was added. To these plates, 50 μl of different dilutions of purified hCD27.15 antibodies were added. After 1 hour incubation at room temperature, the 100 μl rhCD27Fc/antibody mix was transferred to the CHO-K1/CD70 plate(s) from which the medium had been removed. These plate(s) were incubated for 1 hour at room temperature and then washed 3 times with PB ST. 100 μl anti-human Ig (H+L)-HRP conjugate (1:2,500) was added to every well (Promega, cat. no. W4031) and the plates were incubated for 1 hour at 37° C. After 6 final washes with PBST TMB Stabilized Chromagen (Invitrogen, cat. no. SB02) (100 μl/well) was added and the ELISA was read out as outlined above. […] Calculated IC₅₀ values of hCD27.15 and the positive control 1A4, which represent the concentration at which half of the inhibition is observed, are presented in Table 1.

IC50 (read off the curve) [1]: 0.2 µg/mL
Molecule: anti-hCD27, clone 57703 (R&D systems, cat. no. MAB382) (antibody)

EC50 [2]: 0.033 µg/mL
IC50 [3]: 0.0937 µg/mL
IC50 [4]: 0.37 µg/mL
Molecule: anti-hCD27, clone 1A4 (Beckman Coulter, cat. no. IM2034) (antibody)

EC50 [5]: 0.686 µg/mL
binding result [6]: no binding
Kd [7]: 122 nM
IC50 [8]: 0.864 µg/mL
IC50 [9]: 1.55 µg/mL
B1: monoclonal antibody hCD27.15 (hybridoma hCD27.15, ATCC PTA-11008) (antibody, mouse IgG1, V domains shown)
VH: EVRLQQSGADLVKPGASVKLSCTASGFIIKATYMHWVRQRPEQGLEWIGRIDPANGETKYDPKFQVKATITADTSSSTAYLQLNSLTSDDTAVYYCARYAWYFDVWGAGTTVTVSS
VL: DIQMTQSPASLSASVGDTVTITCRASENIYSFLAWYHQKQGRSPQLLVYHAKTLAEGVPSRFSGSGSGTQFSLKINSLQAEDFGSYYCQHYYGSPLTFGAGTKLEVK
notes: Mouse antibody purified from hybridoma; VH is joined to a mouse IgG1 constant region and VL to the kappa constant region; also called hCD27.15 mAb; anti-hCD27 antibody hCD27.15
